Measured values: publication PMC4813479, “β-Subunit Binding Is Sufficient for Ligands to Open the Integrin αIIbβ3 Headpiece” (The Journal of Biological Chemistry, 2015)

Target: full-length human αIIbβ3 on CHO K1 cells (human) (UniProt P08514)

fibronectin hexapeptide GRGDSP
EC50 of LIBS1 epitope exposure on CHO cells expressing αIIbβ3 (flow cytometry, 1 mM Mg2+ and 1 mM Ca2+): 210 µM
